From paper PMC3176292, “Mutations in Protein-Binding Hot-Spots on the Hub Protein Smad3 Differentially Affect Its Protein Interactions and Smad3-Regulated Gene Expression” (PLoS ONE, 2011)
Substitutions are numbered along the chain they refer to. Numbers in names are those of the source.

T1: Flag-Smad4, full length (UniProt Q13485 1-552)
T1 construct: Smad4; plasmid pCMV5-Flag-Smad4 (from J. Massagué); also called Smad4 FL; source: HEK-293, transfected, in lysate
T1 sequence (looked up): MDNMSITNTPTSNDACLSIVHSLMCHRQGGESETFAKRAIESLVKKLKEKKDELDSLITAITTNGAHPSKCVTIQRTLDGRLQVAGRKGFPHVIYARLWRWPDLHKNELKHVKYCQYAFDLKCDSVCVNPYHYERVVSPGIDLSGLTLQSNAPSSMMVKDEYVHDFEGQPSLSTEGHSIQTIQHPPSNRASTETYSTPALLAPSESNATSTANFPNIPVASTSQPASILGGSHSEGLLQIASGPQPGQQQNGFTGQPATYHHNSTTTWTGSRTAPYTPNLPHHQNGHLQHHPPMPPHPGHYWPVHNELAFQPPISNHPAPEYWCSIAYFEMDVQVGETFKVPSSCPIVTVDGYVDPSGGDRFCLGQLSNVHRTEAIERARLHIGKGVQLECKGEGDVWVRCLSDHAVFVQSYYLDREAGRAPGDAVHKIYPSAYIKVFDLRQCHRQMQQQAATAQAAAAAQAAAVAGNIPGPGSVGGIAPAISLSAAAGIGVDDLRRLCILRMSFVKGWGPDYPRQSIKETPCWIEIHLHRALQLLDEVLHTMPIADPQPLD

T2: Ski Smad-binding domain (amino acids 2–56) on the 3xFlag-thioredoxin scaffold (UniProt P12755 2-56)
T2 construct: Ski, amino acids 2–56; cloned into the unique RsrII site of pCI-3xFLAG-Trx; also called Ski aa2–56; TrxSki; source: HEK-293, transfected, in lysate
T2 sequence (looked up): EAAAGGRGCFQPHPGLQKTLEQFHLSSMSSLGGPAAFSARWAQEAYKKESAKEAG

T3: Flag-SkiW274E, full length (UniProt P12755 1-728, W274E)
T3 construct: plasmid pCMV5b-Flag-SkiW274E (from K. Luo); also called SkiW274E FL; SKI274E; source: HEK-293, transfected, in lysate
T3 sequence (looked up): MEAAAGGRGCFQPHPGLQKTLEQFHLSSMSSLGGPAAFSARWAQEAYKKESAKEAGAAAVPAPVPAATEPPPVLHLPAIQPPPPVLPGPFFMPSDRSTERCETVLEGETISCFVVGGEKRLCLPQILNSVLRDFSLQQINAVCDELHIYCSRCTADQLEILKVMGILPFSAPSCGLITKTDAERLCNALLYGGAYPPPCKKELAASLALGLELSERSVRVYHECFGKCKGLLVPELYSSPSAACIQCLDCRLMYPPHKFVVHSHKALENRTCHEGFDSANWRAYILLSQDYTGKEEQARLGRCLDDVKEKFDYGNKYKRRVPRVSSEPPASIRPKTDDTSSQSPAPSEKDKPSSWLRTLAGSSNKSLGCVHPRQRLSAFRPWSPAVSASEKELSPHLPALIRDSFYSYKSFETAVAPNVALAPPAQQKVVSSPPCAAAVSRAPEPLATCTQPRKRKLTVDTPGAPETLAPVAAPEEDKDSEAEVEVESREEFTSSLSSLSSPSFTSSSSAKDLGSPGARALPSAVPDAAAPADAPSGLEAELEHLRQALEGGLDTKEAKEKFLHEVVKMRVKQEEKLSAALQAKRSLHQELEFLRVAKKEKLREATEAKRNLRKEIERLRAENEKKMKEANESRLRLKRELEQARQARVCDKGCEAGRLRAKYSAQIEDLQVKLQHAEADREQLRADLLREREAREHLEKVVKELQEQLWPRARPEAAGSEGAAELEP

B1: Renilla luciferase-Smad3 C338A (natural protein, UniProt P84022 1-425, looked up)
chain: MSSILPFTPPIVKRLLGWKKGEQNGQEEKWCEKAVKSLVKKLKKTGQLDELEKAITTQNVNTKCITIPRSLDGRLQVSHRKGLPHVIYCRLWRWPDLHSHHELRAMELCEFAFNMKKDEVCVNPYHYQRVETPVLPPVLVPRHTEIPAEFPPLDDYSHSIPENTNFPAGIEPQSNIPETPPPGYLSEDGETSDHQMNHSMDAGSPNLSPNPMSPAHNNLDLQPVTYCEPAFWCSISYYELNQRVGETFHASQPSMTVDGFTDPSNSERFCLGLLSNVNRNAAVELTRRHIGRGVRLYYIGGEVFAECLSDSAIFVQSPNCNQRYGWHPATVCKIPPGANLKIFNNQEFAALLAQSVNQGFEAVYQLTRMCTIRMSFVKGWGAEYRRQTVTSTPCWIELHLNGPLQWLDKVLTQMGSPSIRCSSVS
notes: Smad3; source: HEK-293, transfected together with constitutively active Alk5, in lysate
B2: Renilla luciferase-Smad3 V356R (natural protein, UniProt P84022 1-425, looked up)
chain: B1 chain with A338C, V356R
notes: as for B1
B3: Renilla luciferase-Smad3 S254A (natural protein, UniProt P84022 1-425, looked up)
chain: B1 chain with S254A, A338C
notes: as for B1
B4: Renilla luciferase-Smad3 P335A/P336A (natural protein, UniProt P84022 1-425, looked up)
chain: B1 chain with P335A, P336A, A338C
notes: as for B1
B5: Renilla luciferase-Smad3 V224A (natural protein, UniProt P84022 1-425, looked up)
chain: B1 chain with V224A, A338C
notes: as for B1
B6: Renilla luciferase-Smad3 W406A (natural protein, UniProt P84022 1-425, looked up)
chain: B1 chain with A338C, W406A
notes: as for B1
B7: Renilla luciferase-Smad3 K341A (natural protein, UniProt P84022 1-425, looked up)
chain: B1 chain with A338C, K341A
notes: as for B1
B8: Renilla luciferase-Smad3 Y226A (natural protein, UniProt P84022 1-425, looked up)
chain: B1 chain with Y226A, A338C
notes: as for B1
B9: Renilla luciferase-Smad3 L340A (natural protein, UniProt P84022 1-425, looked up)
chain: B1 chain with A338C, L340A
notes: as for B1
B10: Renilla luciferase-Smad3 E267A (natural protein, UniProt P84022 1-425, looked up)
chain: B1 chain with E267A, A338C
notes: as for B1
B11: Renilla luciferase-Smad3 W326A (natural protein, UniProt P84022 1-425, looked up)
chain: B1 chain with W326A, A338C
notes: as for B1
B12: Renilla luciferase-Smad3 Q322A/Y324A (natural protein, UniProt P84022 1-425, looked up)
chain: B1 chain with Q322A, Y324A, A338C
notes: as for B1
B13: Renilla luciferase-Smad3 Y297A (natural protein, UniProt P84022 1-425, looked up)
chain: B1 chain with Y297A, A338C
notes: as for B1

biological target: T1, Flag-Smad4, full length; experiment: co-IP; LUMIER: Renilla luciferase-Smad3 and Flag-tagged partner co-expressed with constitutively active Alk5 in HEK-293; Flag protein captured from cleared lysate (TNE: 10 mM Tris-HCl pH 7.8, 150 mM NaCl, 1 mM EDTA, 1% Igepal CA-630) on anti-Flag 96-well plates, 2 h at 4 °C; co-precipitated Renilla luciferase activity, TrxGA background subtracted, percent of wild-type Smad3; conditions: partners not purified

Question: For B1, which “percent binding relative to wild-type Smad3” value is on record?
Answer: 125%

Question: B2 was tested. Which “percent binding relative to wild-type Smad3” value did it give?
Answer: 233%

Question: Which “percent binding relative to wild-type Smad3” value does the source give for B3 here?
Answer: 101%

Question: With B4 as the binder, how does the “percent binding relative to wild-type Smad3” value read?
Answer: 309%

Question: B5 was tested. Which “percent binding relative to wild-type Smad3” value did it give?
Answer: 122%

Question: How did the “percent binding relative to wild-type Smad3” value turn out when B6 was run?
Answer: 109%

Question: For B7, which “percent binding relative to wild-type Smad3” value is on record?
Answer: 275%

Question: For B8, which “percent binding relative to wild-type Smad3” value is on record?
Answer: 110%

Question: With B9 as the binder, how does the “percent binding relative to wild-type Smad3” value read?
Answer: 181%

Question: With B10 as the binder, how does the “percent binding relative to wild-type Smad3” value read?
Answer: 458%

Question: With B11 as the binder, how does the “percent binding relative to wild-type Smad3” value read?
Answer: 194%

Question: B12 was tested. Which “percent binding relative to wild-type Smad3” value did it give?
Answer: 124%

biological target: T4, Flag-Smad3, full length (UniProt P84022 1-425); experiment: as above; conditions: partners not purified
T4 construct: Smad3; plasmid pCMV5-Flag-Smad3 (from J. Massagué); bait for Smad3-Smad3 association; also called Smad3 FL; source: HEK-293, transfected together with constitutively active Alk5, in lysate

Question: B1 was tested. Which “percent binding relative to wild-type Smad3” value did it give?
Answer: 100%

Question: How did the “percent binding relative to wild-type Smad3” value turn out when B2 was run?
Answer: 275%

Question: With B3 as the binder, how does the “percent binding relative to wild-type Smad3” value read?
Answer: 105%

Question: How did the “percent binding relative to wild-type Smad3” value turn out when B4 was run?
Answer: 109%

Question: With B5 as the binder, how does the “percent binding relative to wild-type Smad3” value read?
Answer: 118%

Question: B6 was tested. Which “percent binding relative to wild-type Smad3” value did it give?
Answer: 564%

Question: B7 was tested. Which “percent binding relative to wild-type Smad3” value did it give?
Answer: 95%

Question: With B8 as the binder, how does the “percent binding relative to wild-type Smad3” value read?
Answer: 161%

Question: How did the “percent binding relative to wild-type Smad3” value turn out when B13 was run?
Answer: 82%

Question: Which “percent binding relative to wild-type Smad3” value does the source give for B9 here?
Answer: 99%

Question: Which “percent binding relative to wild-type Smad3” value does the source give for B10 here?
Answer: 222%

Question: How did the “percent binding relative to wild-type Smad3” value turn out when B11 was run?
Answer: 159%

Question: B12 was tested. Which “percent binding relative to wild-type Smad3” value did it give?
Answer: 143%

biological target: T5, Smurf2 Smad-binding domain (amino acids 252–330) on the Flag-thioredoxin scaffold (UniProt Q9HAU4 252-330); experiment: as above; conditions: partners not purified
T5 construct: Smurf2, amino acids 252–330; also called Smurf2 aa252–330; TrxSmurf2; source: HEK-293, transfected, in lysate
T5 sequence (Q9HAU4 252-330): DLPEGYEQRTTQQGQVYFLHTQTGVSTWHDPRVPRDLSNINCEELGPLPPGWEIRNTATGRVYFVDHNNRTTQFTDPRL

Question: With B1 as the binder, how does the “percent binding relative to wild-type Smad3” value read?
Answer: 153%

Question: How did the “percent binding relative to wild-type Smad3” value turn out when B2 was run?
Answer: 468%

Question: With B3 as the binder, how does the “percent binding relative to wild-type Smad3” value read?
Answer: 113%

Question: For B4, which “percent binding relative to wild-type Smad3” value is on record?
Answer: 255%

Question: B5 was tested. Which “percent binding relative to wild-type Smad3” value did it give?
Answer: 320%

Question: For B6, which “percent binding relative to wild-type Smad3” value is on record?
Answer: 1330%

Question: How did the “percent binding relative to wild-type Smad3” value turn out when B7 was run?
Answer: 130%

Question: Which “percent binding relative to wild-type Smad3” value does the source give for B8 here?
Answer: 365%

Question: With B9 as the binder, how does the “percent binding relative to wild-type Smad3” value read?
Answer: 259%

Question: B10 was tested. Which “percent binding relative to wild-type Smad3” value did it give?
Answer: 379%

Question: With B11 as the binder, how does the “percent binding relative to wild-type Smad3” value read?
Answer: 653%

Question: For B12, which “percent binding relative to wild-type Smad3” value is on record?
Answer: 308%

biological target: T2, Ski Smad-binding domain (amino acids …); experiment: as above; conditions: partners not purified

Question: B1 was tested. Which “percent binding relative to wild-type Smad3” value did it give?
Answer: 188%

Question: How did the “percent binding relative to wild-type Smad3” value turn out when B2 was run?
Answer: 2%

Question: How did the “percent binding relative to wild-type Smad3” value turn out when B3 was run?
Answer: 10%

Question: B4 was tested. Which “percent binding relative to wild-type Smad3” value did it give?
Answer: 356%

Question: B5 was tested. Which “percent binding relative to wild-type Smad3” value did it give?
Answer: 524%

Question: How did the “percent binding relative to wild-type Smad3” value turn out when B6 was run?
Answer: 5%

Question: With B7 as the binder, how does the “percent binding relative to wild-type Smad3” value read?
Answer: 27%

Question: With B8 as the binder, how does the “percent binding relative to wild-type Smad3” value read?
Answer: 32%

Question: With B9 as the binder, how does the “percent binding relative to wild-type Smad3” value read?
Answer: 194%

Question: For B10, which “percent binding relative to wild-type Smad3” value is on record?
Answer: 1150%

Question: B11 was tested. Which “percent binding relative to wild-type Smad3” value did it give?
Answer: 292%

Question: Which “percent binding relative to wild-type Smad3” value does the source give for B12 here?
Answer: 237%

biological target: T3, Flag-SkiW274E, full length; experiment: as above; conditions: partners not purified

Question: With B1 as the binder, how does the “percent binding relative to wild-type Smad3” value read?
Answer: 111%

Question: For B2, which “percent binding relative to wild-type Smad3” value is on record?
Answer: 30%

Question: B3 was tested. Which “percent binding relative to wild-type Smad3” value did it give?
Answer: 78%

Question: Which “percent binding relative to wild-type Smad3” value does the source give for B4 here?
Answer: 118%

Question: With B5 as the binder, how does the “percent binding relative to wild-type Smad3” value read?
Answer: 212%

Question: B6 was tested. Which “percent binding relative to wild-type Smad3” value did it give?
Answer: 21%

Question: How did the “percent binding relative to wild-type Smad3” value turn out when B7 was run?
Answer: 55%

Question: For B8, which “percent binding relative to wild-type Smad3” value is on record?
Answer: 89%

Question: How did the “percent binding relative to wild-type Smad3” value turn out when B13 was run?
Answer: 29%

Question: How did the “percent binding relative to wild-type Smad3” value turn out when B9 was run?
Answer: 57%

Question: Which “percent binding relative to wild-type Smad3” value does the source give for B10 here?
Answer: 137%

Question: Which “percent binding relative to wild-type Smad3” value does the source give for B11 here?
Answer: 88%

Question: Which “percent binding relative to wild-type Smad3” value does the source give for B12 here?
Answer: 100%
